The source of these data is patent EP0935607B1.

For experiment [1], the target named is recombinant HLA-DR2 fusion protein (DRα-Fos / DRβ-Jun heterodimer, DRA*0101 / DRB1*1501) secreted by Pichia pastoris (human). The experiment can be described thus: time course ELISA at 37°C, 200 nM DR2, 2 µM peptide, L243 capture. A general note: In an ELISA, binding on a coated surface is turned into a signal by an enzyme label.
For experiment [2], the target named is detergent soluble DR2 purified from an EBV transformed B cell line (human) (UniProt P01903). Described as above.

With “biotinylated MBP(85-99) peptide, biotin-SGSG-MBP(85-99) (from UniProt P02686 85-99)”, in experiment [1], the time to 50% maximum binding stood at 3 h. The time to plateau of binding in experiment [1] is 18 h; in experiment [2], above 48 h.
